Data taken from patent US20250073303A1, “TDP-43 Interference Peptides, Methods, and Uses Thereof” (The University of British Columbia, priority 2022, published 2025).

Columns and labels:
[1] = target: TDP-43 (Homo sapiens, UniProt Q13148); assay: Peptide blocking of TDP-43 phosphorylation and aggregation in HEK293 cells overexpressing pcDNA3.1-FLAG-CK1δ1-317 (western blotting); format: cell-based; parameters: Endogenous TDP-43 was highly phosphorylated by active CK-1δ (lacking its regulatory domain); endogenous in cells; host or cells: HEK293 cells transfected with pcDNA3.1-FLAG-CK1δ1-317; conditions: HEK293, CK1δ1-317 overexpression
Experimental: Cell treatment and peptide blocking assay: Ethacrynic acid (EA) (Sigma, Saint Louis, MO) was dissolved in dimethyl sulfoxide (DMSO) at a stock concentration of 100 mM. For SH-SY5Y cells and HEK-293 cells, ethacrynic acid (EA) was added to the culture medium at 1:1000 to reach a final concentration of 100 μM. The treatment was maintained for 24 hours. For mouse cortical neurons, mature cortical neurons of 14 days in vitro (DIV) were used for experiments. Ethacrynic acid (EA) was added to neurons at a concentration of 20 μM for 5 hours. For peptide treatment in cell culture, the peptides were dissolved in double distilled water at a stock concentration of 10 mM and stored at −80° C. […] The primary cultured neurons were treated with peptide A, B, C and D mixture (equal concentration for each) at a final concentration of 5 μM and 10 μM.
The plasmids were transfected into HEK293 or SH-SY5Y cells using the Lipofectamine 2000 system. Before transfection, cells were plated at 80˜90% confluence and cultured in DMEM containing 10% fetal bovine serum (FBS). […]
Fractionation of cellular soluble and insoluble proteins: Cells or spinal cord tissue were harvested and lysed in 500 μl RIPA buffer [50 mM Tris-HCl pH 7.4; 150 mM NaCl; 1% NP-40; 0.5% Na-deoxycholate; 1 mM EDTA; 50 mM NaF; 1 mM PMSF and protease inhibitor] on ice. […] All the protein samples were further analyzed by Western immunoblotting. […]

[2] = tested on: SH-SY5Y cells; assay: MTT assay of SH-SY5Y cells with ethacrynic acid challenge; format: cell-based, human; conditions: ethacrynic acid treatment compared with the control group
Experimental: Cell treatment and peptide blocking assay: Ethacrynic acid (EA) (Sigma, Saint Louis, MO) was dissolved in dimethyl sulfoxide (DMSO) at a stock concentration of 100 mM. For SH-SY5Y cells and HEK-293 cells, ethacrynic acid (EA) was added to the culture medium at 1:1000 to reach a final concentration of 100 μM. The treatment was maintained for 24 hours. For mouse cortical neurons, mature cortical neurons of 14 days in vitro (DIV) were used for experiments. Ethacrynic acid (EA) was added to neurons at a concentration of 20 μM for 5 hours. For peptide treatment in cell culture, the peptides were dissolved in double distilled water at a stock concentration of 10 mM and stored at −80° C. The combination of peptides A, B, C and D at equal concentration of 5 μM for each peptide and 20 μM in total was added into cultures of SH-SY5Y cells or HEK-293 cells one hour before ethacrynic acid treatment or pcDNA3.1-FLAG-CK1δ1-317 transfection. […]
MTT assay: The cell viability of SH-SY5Y cells after treatment of Ethacrynic acid (EA) was determined using the MTT assay (Sigma, Saint Louis, MO). Briefly, MTT solution was added to cells for 3-4 hours at 37° C. at the time when the cell viability was determined. […] On the second day, the plate was shaken for 15 minutes in the dark and absorbance at OD=595 nm was read using a plate reader (Envision 2103 Multilabel Reader, Perkin Elmer).

Chain of TDP-43 (Q13148 whole entry, the tested form may be a part): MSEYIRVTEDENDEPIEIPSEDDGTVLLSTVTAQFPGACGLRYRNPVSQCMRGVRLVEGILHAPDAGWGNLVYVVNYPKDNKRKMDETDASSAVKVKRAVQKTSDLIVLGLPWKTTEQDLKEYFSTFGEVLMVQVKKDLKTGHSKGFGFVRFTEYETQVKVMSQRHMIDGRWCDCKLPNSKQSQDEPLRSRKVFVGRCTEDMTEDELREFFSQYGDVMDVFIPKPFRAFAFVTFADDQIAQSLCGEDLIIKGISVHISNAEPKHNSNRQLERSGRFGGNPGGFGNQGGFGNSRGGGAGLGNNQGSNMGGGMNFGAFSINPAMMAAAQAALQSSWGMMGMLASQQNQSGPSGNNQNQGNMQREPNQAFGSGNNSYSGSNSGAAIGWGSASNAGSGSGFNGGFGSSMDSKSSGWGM

Row | Molecule | TDP-43 phosphorylation in both the soluble fraction and insoluble fraction ([1]; 20 μM every 6 hours for a total of 48 hours) | TDP-43 aggregation induced by CK1δ ([1]; 40 μM every 6 hours for a total of 48 hours, compared with 20 μM) | cell death of SH-SY5Y cells [2] [%]
1 | ppTDP: peptide covering the T25 site and S403 site of TDP-43, with a linker sequence between the blocking sequences and a TAT sequence (YGRKKRRQRRRDGTVLLGGGGFGSSMDSKSSG) | efficiently blocked | did not block TDP-43 aggregation induced by CK1δ more effectively | –
2 | C=C(CC)C(=O)c1ccc(OCC(=O)O)c(Cl)c1Cl [ethacrynic acid] | – | – | 69.97
